Results reported in patent publication US20140087995A1 (published 2014).
Numbered stars: 1 amine (or outer) side, 2 acyl side, 3 side chain; on linkers, the order of the positions; unused ones are H or OH. Bridge positions count the residues as written; N and C are the ends. Side chains are listed from the residue outwards. Ends that are not written are not given here. * marks the point of attachment. C20 diacid = O=C(O)CCCCCCCCCCCCCCCCCCC(=O)*; γGlu = O=C(O)[C@H](CCC(=O)[*:2])N[*:1]

B1: N^ε1-[(4S)-4-carboxy-4-(19-carboxynonadecanoylamino)butanoyl]-[Arg17,Pro21,Pro27,His34]-h-amylin (peptide)
peptide: K([γGlu-C20 diacid])CNTATCATQRLANFLRHSSPNFGAIPSSTNVGHNTY-NH2
modifications: disulfide 2-7; N-terminus assumed
SMILES: CC[C@H](C)[C@H](NC(=O)[C@H](C)NC(=O)CNC(=O)[C@H](Cc1ccccc1)NC(=O)[C@H](CC(N)=O)NC(=O)[C@@H]1CCCN1C(=O)[C@H](CO)NC(=O)[C@H](CO)NC(=O)[C@H](Cc1c[nH]cn1)NC(=O)[C@H](CCCNC(=N)N)NC(=O)[C@H](CC(C)C)NC(=O)[C@H](Cc1ccccc1)NC(=O)[C@H](CC(N)=O)NC(=O)[C@H](C)NC(=O)[C@H](CC(C)C)NC(=O)[C@H](CCCNC(=N)N)NC(=O)[C@H](CCC(N)=O)NC(=O)[C@@H](NC(=O)[C@H](C)NC(=O)[C@@H]1CSSC[C@H](NC(=O)[C@@H](N)CCCCNC(=O)CC[C@H](NC(=O)CCCCCCCCCCCCCCCCCCC(=O)O)C(=O)O)C(=O)N[C@@H](CC(N)=O)C(=O)N[C@@H]([C@@H](C)O)C(=O)N[C@@H](C)C(=O)N[C@@H]([C@@H](C)O)C(=O)N1)[C@@H](C)O)C(=O)N1CCC[C@H]1C(=O)N[C@@H](CO)C(=O)N[C@@H](CO)C(=O)N[C@H](C(=O)N[C@@H](CC(N)=O)C(=O)N[C@H](C(=O)NCC(=O)N[C@@H](Cc1c[nH]cn1)C(=O)N[C@@H](CC(N)=O)C(=O)N[C@H](C(=O)N[C@@H](Cc1ccc(O)cc1)C(N)=O)[C@@H](C)O)C(C)C)[C@@H](C)O
notes: Analogue of human amylin; disulfide and C-terminal amide as told for h-amylin; also called compound 77
B2: N^ε1-[(4S)-4-carboxy-4-(19-carboxynonadecanoylamino)butanoyl]-[His14,Arg17,Pro21,Pro27,His34]-h-amylin (peptide)
peptide: K([γGlu-C20 diacid])CNTATCATQRLAHFLRHSSPNFGAIPSSTNVGHNTY-NH2
modifications: disulfide 2-7; N-terminus assumed
SMILES: CC[C@H](C)[C@H](NC(=O)[C@H](C)NC(=O)CNC(=O)[C@H](Cc1ccccc1)NC(=O)[C@H](CC(N)=O)NC(=O)[C@@H]1CCCN1C(=O)[C@H](CO)NC(=O)[C@H](CO)NC(=O)[C@H](Cc1c[nH]cn1)NC(=O)[C@H](CCCNC(=N)N)NC(=O)[C@H](CC(C)C)NC(=O)[C@H](Cc1ccccc1)NC(=O)[C@H](Cc1c[nH]cn1)NC(=O)[C@H](C)NC(=O)[C@H](CC(C)C)NC(=O)[C@H](CCCNC(=N)N)NC(=O)[C@H](CCC(N)=O)NC(=O)[C@@H](NC(=O)[C@H](C)NC(=O)[C@@H]1CSSC[C@H](NC(=O)[C@@H](N)CCCCNC(=O)CC[C@H](NC(=O)CCCCCCCCCCCCCCCCCCC(=O)O)C(=O)O)C(=O)N[C@@H](CC(N)=O)C(=O)N[C@@H]([C@@H](C)O)C(=O)N[C@@H](C)C(=O)N[C@@H]([C@@H](C)O)C(=O)N1)[C@@H](C)O)C(=O)N1CCC[C@H]1C(=O)N[C@@H](CO)C(=O)N[C@@H](CO)C(=O)N[C@H](C(=O)N[C@@H](CC(N)=O)C(=O)N[C@H](C(=O)NCC(=O)N[C@@H](Cc1c[nH]cn1)C(=O)N[C@@H](CC(N)=O)C(=O)N[C@H](C(=O)N[C@@H](Cc1ccc(O)cc1)C(N)=O)[C@@H](C)O)C(C)C)[C@@H](C)O
notes: Analogue of human amylin; disulfide and C-terminal amide as told for h-amylin; also called compound 81
B3: N^ε1-[(4S)-4-carboxy-4-(19-carboxynonadecanoylamino)butanoyl]-[His14,Arg17,Pro21,Pro27,His35]-h-amylin (peptide)
peptide: K([γGlu-C20 diacid])CNTATCATQRLAHFLRHSSPNFGAIPSSTNVGSHTY-NH2
modifications: disulfide 2-7; N-terminus assumed
SMILES: CC[C@H](C)[C@H](NC(=O)[C@H](C)NC(=O)CNC(=O)[C@H](Cc1ccccc1)NC(=O)[C@H](CC(N)=O)NC(=O)[C@@H]1CCCN1C(=O)[C@H](CO)NC(=O)[C@H](CO)NC(=O)[C@H](Cc1c[nH]cn1)NC(=O)[C@H](CCCNC(=N)N)NC(=O)[C@H](CC(C)C)NC(=O)[C@H](Cc1ccccc1)NC(=O)[C@H](Cc1c[nH]cn1)NC(=O)[C@H](C)NC(=O)[C@H](CC(C)C)NC(=O)[C@H](CCCNC(=N)N)NC(=O)[C@H](CCC(N)=O)NC(=O)[C@@H](NC(=O)[C@H](C)NC(=O)[C@@H]1CSSC[C@H](NC(=O)[C@@H](N)CCCCNC(=O)CC[C@H](NC(=O)CCCCCCCCCCCCCCCCCCC(=O)O)C(=O)O)C(=O)N[C@@H](CC(N)=O)C(=O)N[C@@H]([C@@H](C)O)C(=O)N[C@@H](C)C(=O)N[C@@H]([C@@H](C)O)C(=O)N1)[C@@H](C)O)C(=O)N1CCC[C@H]1C(=O)N[C@@H](CO)C(=O)N[C@@H](CO)C(=O)N[C@H](C(=O)N[C@@H](CC(N)=O)C(=O)N[C@H](C(=O)NCC(=O)N[C@@H](CO)C(=O)N[C@@H](Cc1c[nH]cn1)C(=O)N[C@H](C(=O)N[C@@H](Cc1ccc(O)cc1)C(N)=O)[C@@H](C)O)C(C)C)[C@@H](C)O
notes: Analogue of human amylin; disulfide and C-terminal amide as told for h-amylin; also called compound 66
B4: N^ε1-[(4S)-4-carboxy-4-(19-carboxynonadecanoylamino)butanoyl]-[His14,Arg17,Pro21,Pro27,Arg34]-h-amylin (peptide)
peptide: K([γGlu-C20 diacid])CNTATCATQRLAHFLRHSSPNFGAIPSSTNVGRNTY-NH2
modifications: disulfide 2-7; N-terminus assumed
SMILES: CC[C@H](C)[C@H](NC(=O)[C@H](C)NC(=O)CNC(=O)[C@H](Cc1ccccc1)NC(=O)[C@H](CC(N)=O)NC(=O)[C@@H]1CCCN1C(=O)[C@H](CO)NC(=O)[C@H](CO)NC(=O)[C@H](Cc1c[nH]cn1)NC(=O)[C@H](CCCNC(=N)N)NC(=O)[C@H](CC(C)C)NC(=O)[C@H](Cc1ccccc1)NC(=O)[C@H](Cc1c[nH]cn1)NC(=O)[C@H](C)NC(=O)[C@H](CC(C)C)NC(=O)[C@H](CCCNC(=N)N)NC(=O)[C@H](CCC(N)=O)NC(=O)[C@@H](NC(=O)[C@H](C)NC(=O)[C@@H]1CSSC[C@H](NC(=O)[C@@H](N)CCCCNC(=O)CC[C@H](NC(=O)CCCCCCCCCCCCCCCCCCC(=O)O)C(=O)O)C(=O)N[C@@H](CC(N)=O)C(=O)N[C@@H]([C@@H](C)O)C(=O)N[C@@H](C)C(=O)N[C@@H]([C@@H](C)O)C(=O)N1)[C@@H](C)O)C(=O)N1CCC[C@H]1C(=O)N[C@@H](CO)C(=O)N[C@@H](CO)C(=O)N[C@H](C(=O)N[C@@H](CC(N)=O)C(=O)N[C@H](C(=O)NCC(=O)N[C@@H](CCCNC(=N)N)C(=O)N[C@@H](CC(N)=O)C(=O)N[C@H](C(=O)N[C@@H](Cc1ccc(O)cc1)C(N)=O)[C@@H](C)O)C(C)C)[C@@H](C)O
notes: Analogue of human amylin; disulfide and C-terminal amide as told for h-amylin; also called compound 85

biological target: T1, rat calcitonin receptor (rat, UniProt P32214 25-516); test: SPA competition with 125I-calcitonin, membranes with rat calcitonin receptor (Assay VIII)
T1 construct: whole, on cells; Used as membranes prepared from the transfected cells; also called rCTR; rCT
T1 sequence (looked up): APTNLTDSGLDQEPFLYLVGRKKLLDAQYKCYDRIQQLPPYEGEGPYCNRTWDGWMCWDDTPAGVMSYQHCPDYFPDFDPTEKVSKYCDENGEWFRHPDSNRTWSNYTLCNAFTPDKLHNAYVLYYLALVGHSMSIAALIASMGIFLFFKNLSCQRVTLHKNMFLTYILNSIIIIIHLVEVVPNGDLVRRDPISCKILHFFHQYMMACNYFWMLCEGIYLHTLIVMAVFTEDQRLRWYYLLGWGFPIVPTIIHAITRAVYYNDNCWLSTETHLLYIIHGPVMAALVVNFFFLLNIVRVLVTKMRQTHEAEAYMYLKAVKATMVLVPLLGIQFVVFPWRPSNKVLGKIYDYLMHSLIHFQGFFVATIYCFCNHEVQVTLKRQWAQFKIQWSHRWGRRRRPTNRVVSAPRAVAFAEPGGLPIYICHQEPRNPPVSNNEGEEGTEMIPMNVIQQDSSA

Q: With B1 as the binder, how does the IC50 read?
A: The IC50 was 205 nM.

Q: B2 was tested. Which IC50 did it give?
A: The IC50 was 61.1 nM.

Q: How did the IC50 turn out when B3 was run?
A: The IC50 was 20.8 nM.

Q: For B4, which IC50 is on record?
A: The IC50 was 146 nM.

biological target: T1, rat calcitonin receptor; test: ratio of binding IC50 at rat calcitonin receptor to IC50 at rat amylin receptor (reference)

Q: Which “Ratio rCT/rAmylin binding” value does the source give for B1 here?
A: Its value is 137.

Q: B2 was tested. Which “Ratio rCT/rAmylin binding” value did it give?
A: The value was 42.9.

Q: With B3 as the binder, how does the “Ratio rCT/rAmylin binding” value read?
A: The value was 35.8.

Q: With B4 as the binder, how does the “Ratio rCT/rAmylin binding” value read?
A: The value was 46.5.

biological target: T2, human calcitonin receptor (human, UniProt P30988 25-474); test: ratio of binding IC50 at human calcitonin receptor to IC50 at human amylin receptor (reference)
T2 construct: whole, on cells; Used as membranes prepared from the transfected cells; also called hCTR; hCT
T2 sequence (looked up): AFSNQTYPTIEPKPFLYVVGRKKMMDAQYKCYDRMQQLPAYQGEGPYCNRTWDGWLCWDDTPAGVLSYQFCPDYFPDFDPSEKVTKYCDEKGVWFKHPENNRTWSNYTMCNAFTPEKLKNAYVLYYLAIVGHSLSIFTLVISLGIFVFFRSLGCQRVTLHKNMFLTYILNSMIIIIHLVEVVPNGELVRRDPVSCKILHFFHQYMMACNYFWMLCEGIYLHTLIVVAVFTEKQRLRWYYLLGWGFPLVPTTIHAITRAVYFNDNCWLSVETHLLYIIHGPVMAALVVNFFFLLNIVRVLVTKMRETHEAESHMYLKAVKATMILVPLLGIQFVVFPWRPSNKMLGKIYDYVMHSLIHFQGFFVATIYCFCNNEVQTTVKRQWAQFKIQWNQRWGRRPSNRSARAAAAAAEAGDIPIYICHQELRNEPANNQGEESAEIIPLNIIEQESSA
Method in brief: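 Competition binding by SPA with cell membranes (35 ng/μL) and SPA beads in 50 mM Hepes pH 7.4 with 1 mM CaCl2, 5 mM MgCl2, 0.1% OA and 0.02% Tween20. Incubated 120 min at 25 °C with shaking, then counted.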

Q: How did the “Ratio hCT/hAmylin binding” value turn out when B1 was run?
A: The value was 118.

Q: With B2 as the binder, how does the “Ratio hCT/hAmylin binding” value read?
A: The value was 87.2.

Q: Which “Ratio hCT/hAmylin binding” value does the source give for B3 here?
A: The value was 45.5.

Q: For B4, which “Ratio hCT/hAmylin binding” value is on record?
A: The value was 91.8.
